Patent US20050048579A1, “Tertiary structures of ICAM-1/LFA-1 modulators” (priority 2003, published 2005)
Bridge positions count the residues as written; N and C are the ends. Ends that are not written are not given here. Peptide text beside a SMILES is read from it.

How the values were obtained:
[1] = molecular target: T1, LFA-1 binding to ICAM-1 (JY cells) (Homo sapiens, UniProt P05362); assay: LFA-1:ICAM-1 dependent JY cell aggregation assay (2 hours); assay type: cell-based
T1 construct: endogenous in cells; host or cells: JY cells
Description: Cysteine-constrained peptides, synthesized by Biopeptide (San Diego, Calif., USA), were isolated using high-performance liquid chromatography, and their correct mass was confirmed by mass spectrometry. The peptides were dissolved in 5% dimethylsulfoxide in phosphate-buffered saline (PBS) at concentrations of 10 mm and stored at −80° C. until use. The mAb directed against LFA-1 (TS1/18) was purified from a hybridoma line ([…], Manassas, Va.) as described previously (Oj, V. T. & Herzenberg, T. (1980) Immunoglobulin-producing hybrid celllines. In Selected Methods in Cellular Immunology (Mishell, B. B. & Shiigi, S. M.,eds), H. H. Freeman, New York; Larson, R. S., Brown, D. C. & Sklar, L. A.(1997) Retinoic acid induces aggregation of the acute promyelocytic leukemia cell lineNB-4 by utilization of LFA-1 and ICAM-2.Blood 90, 2747-2756; Rothlein, R. & Springer, T. A. (1986) The requirement for lymphocyte function associated antigen 1 in homotypic leukocyte adhesion stimulated by phorbol ester. J. Exp.Med. 163, 1132-1149).
(§1) JY cells were maintained in RPMI-1640 medium supplemented with 10% fetal bovine serum at 37° C. in an atmosphere containing 5% CO2 in air. The aggregation of JY cells, which is dependent on LFA-1 binding to ICAM-1, was determined as previously reported (Shannon, J. P., Silva, M. V., Brown, D. C. & Larson, R. S. (2001) Novel cyclic peptide inhibits intercellular adhesion molecule-1-mediated cell aggregation. J. Pept. Res. 58, 140-150; Larson, R. S., Brown, D. C. & Sklar, L. A.(1997) Retinoic acid induces aggregation of the acute promyelocytic leukemia cell lineNB-4 by utilization of LFA-1 and ICAM-2.Blood 90, 2747-2756; Rothlein, R. & Springer, T. A. (1986) The requirement for lymphocyte function associated antigen 1 in homotypic leukocyte adhesion stimulated by phorbol ester. J. Exp.Med. 163, 1132-1149). Briefly, JY cells were washed twice with serum-free media and resuspended at a concentration of 4×10^5 cells/mL. Cells were then preincubated with various concentrations of peptides or mAb for 15 minutes at room temperature. A 50 μL aliquot of cells was seeded in each well of a 96-well flat-bottomed microtiterplate followed by the addition of either peptide or mAb to a final volume of 100 μL. Cells were allowed to aggregate at 37° C. in humidified air containing 5% CO2. Within each well, the number of aggregates and the total number of free (single) cells were counted by inverted phase microscopy. Percent aggregation, P, was then determined as follows: P=100(1−Ff/Fi), where Ff (Fi) is the final (initial) number of free cells. Percent aggregation was then used to calculate percent inhibition, I, as follows: […], where Pi (Pc) is the percent aggregation with modulatory peptide (control). The constants for 50% inhibition (IC50) were derived from a linear fit to the percent inhibition at four concentrations (50 μm, 100 μm, 500 μm, and 1 mm) of inhibitory peptide. Each experiment was performed at least three times, with each condition performed in duplicate. The data are reported as the mean values and the SDs of each IC50.

[2] = molecular target: T1, LFA-1 binding to ICAM-1 (JY cells); assay: LFA-1:ICAM-1 dependent cell aggregation assay, slightly modified (360 minute incubations); assay type: cell-based; settings: cell aggregation
Description: as §1
The same general procedure was used as described in Example 1.
The functional activity of each IP02 derivative was measured in a slightly-modified version of the previously described cell aggregation assay (Shannon, J. P., Silva, M. V., Brown, D. C., & Larson, R. S. (2001). Novel cyclic peptide inhibits intercellular adhesion molecule-1-mediated cell aggregation. J. Pept. Res. 58, 140-150; Merchant, S. H., Gurule, D. M., Larson, R. S. (2003). Amelioration of ischemia-reperfusion injury with cyclic peptide blockade of ICAM-1. Am. J. Physiol. Heart Circ. 284,H1260-1268; Larson, R. S., Brown, D. C., and Sklar, L. A. (1997). Retinoic acid induces aggregation of the acute promyelocytic leukemia cell line NB-4 by utilization of LFA-1 and ICAM-2. Blood 90, 2747-2756; Rothlein, R. and Springer, T. A. (1986). The requirement for lymphocyte function-associated antigen 1 in homotypic leukocyte adhesion stimulated by phorbol ester. J. Exp. Med. 163, 1132-1149). Longer incubations (360 minutes) were used here instead of the earlier 120 minute incubations in order to increase the observed differences among peptide antagonists. Of all the amino acid substitutions, replacement of R6 with K, to produce IP02-K6, improved the IC50 the most. […] Alternatively, replacement of L2 or L3 with V (IP02-V2 and IP02-V3) or A8 with L (IP02-L8) abrogated activity, with IC50s exceeding 1,000 μM.

[3] = molecular target: T2, Intercellular adhesion molecule-1 (ICAM-1) on JY cells (UniProt P05362 28-532, limits assumed); assay: cell-based or functional assay
[4] = molecular target: T2, Intercellular adhesion molecule-1 …; assay: cell-based or functional assay; remark: listed apart in the source

T2 sequence (P05362 28-532 limits assumed): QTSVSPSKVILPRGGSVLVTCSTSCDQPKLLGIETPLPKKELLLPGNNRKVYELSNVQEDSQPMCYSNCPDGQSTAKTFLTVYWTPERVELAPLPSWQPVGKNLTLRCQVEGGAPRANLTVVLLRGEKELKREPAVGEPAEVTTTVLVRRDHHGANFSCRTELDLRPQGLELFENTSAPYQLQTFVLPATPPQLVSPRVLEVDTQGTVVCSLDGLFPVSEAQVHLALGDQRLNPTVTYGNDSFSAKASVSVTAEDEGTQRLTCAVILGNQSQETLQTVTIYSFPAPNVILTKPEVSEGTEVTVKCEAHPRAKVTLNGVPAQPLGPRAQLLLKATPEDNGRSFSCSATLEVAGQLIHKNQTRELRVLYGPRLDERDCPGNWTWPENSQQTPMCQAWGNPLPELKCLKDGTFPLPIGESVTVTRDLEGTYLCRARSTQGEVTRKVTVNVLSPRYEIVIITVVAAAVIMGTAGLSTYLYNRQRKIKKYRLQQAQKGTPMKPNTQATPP
T1 sequence (P05362 28-532): as the sequence (P05362 28-532 limits assumed) above

Molecule | IC50, inhibition of JY cell aggregation, 360 minute incubation [3] | IC50, inhibition of JY cell aggregation at 2 hours [4] | other results
CC[C@H](C)[C@@H]1NC(=O)[C@H](CO)NC(=O)[C@H](CCCNC(=N)N)NC(=O)[C@H](CCSC)NC(=O)[C@H](CCCNC(=N)N)NC(=O)[C@H](CC(C)C)NC(=O)[C@H](C)NC(=O)[C@@H](N)CSSC[C@@H](C(=O)O)NC1=O [IP01-A2, CALRMRSIC] (H-CALRMRSIC-OH; disulfide 1-9; N-terminus and C-terminus assumed) | – | – | IC50 [1]: > 1000 µM
CC[C@H](C)[C@@H]1NC(=O)[C@H](CO)NC(=O)[C@H](CCCNC(=N)N)NC(=O)[C@H](CCSC)NC(=O)[C@H](CCCNC(=N)N)NC(=O)[C@H](C)NC(=O)[C@H](CC(C)C)NC(=O)[C@@H](N)CSSC[C@@H](C(=O)O)NC1=O [IP01-A3, CLARMRSIC] (H-CLARMRSIC-OH; disulfide 1-9; N-terminus and C-terminus assumed) | – | – | IC50 [1]: > 1000 µM
CC[C@H](C)[C@@H]1NC(=O)[C@H](CO)NC(=O)[C@H](CCCNC(=N)N)NC(=O)[C@H](C)NC(=O)[C@H](CCCNC(=N)N)NC(=O)[C@H](CC(C)C)NC(=O)[C@H](CC(C)C)NC(=O)[C@@H](N)CSSC[C@@H](C(=O)O)NC1=O [IP01-A5, CLLRARSIC] (H-CLLRARSIC-OH; disulfide 1-9; N-terminus and C-terminus assumed) | – | – | IC50 [1]: > 1000 µM
CC[C@H](C)[C@@H]1NC(=O)[C@@H](N)CSSC[C@@H](C(=O)O)NC(=O)[C@H](C)NC(=O)[C@H](CO)NC(=O)[C@H](CCCNC(=N)N)NC(=O)[C@H](CCSC)NC(=O)[C@H](CCCNC(=N)N)NC(=O)[C@H](CC(C)C)NC1=O [IP02-12, CILRMRSAC] (H-CILRMRSAC-OH; disulfide 1-9; N-terminus and C-terminus assumed) | – | – | IC50 [2]: 105 to 190 µM
CC[C@H](C)[C@@H]1NC(=O)[C@H](CC(C)C)NC(=O)[C@@H](N)CSSC[C@@H](C(=O)O)NC(=O)[C@H](C)NC(=O)[C@H](CO)NC(=O)[C@H](CCCNC(=N)N)NC(=O)[C@H](CCSC)NC(=O)[C@H](CCCNC(=N)N)NC1=O [IP02-13, CLIRMRSAC] (H-CLIRMRSAC-OH; disulfide 1-9; N-terminus and C-terminus assumed) | – | – | IC50 ([2]; unit μm [sic]): ~700 µM
CSCC[C@@H]1NC(=O)[C@H](CCCCN)NC(=O)[C@H](CC(C)C)NC(=O)[C@H](CC(C)C)NC(=O)[C@@H](N)CSSC[C@@H](C(=O)O)NC(=O)[C@H](C)NC(=O)[C@H](CO)NC(=O)[C@H](CCCNC(=N)N)NC1=O [IP02-K4, CLLKMRSAC] (H-CLLKMRSAC-OH; disulfide 1-9; N-terminus and C-terminus assumed) | – | – | IC50 [2]: 105 to 190 µM
CSCC[C@@H]1NC(=O)[C@H](CCCNC(=N)N)NC(=O)[C@H](CC(C)C)NC(=O)[C@H](CC(C)C)NC(=O)[C@@H](N)CSSC[C@@H](C(=O)O)NC(=O)[C@H](CC(C)C)NC(=O)[C@H](CO)NC(=O)[C@H](CCCNC(=N)N)NC1=O [IP02-L8, CLLRMRSLC] (H-CLLRMRSLC-OH; disulfide 1-9; N-terminus and C-terminus assumed) | – | – | IC50 [2]: > 1000 µM
CSCC[C@@H]1NC(=O)[C@H](CCCNC(=N)N)NC(=O)[C@H](CC(C)C)NC(=O)[C@H](C(C)C)NC(=O)[C@@H](N)CSSC[C@@H](C(=O)O)NC(=O)[C@H](C)NC(=O)[C@H](CO)NC(=O)[C@H](CCCNC(=N)N)NC1=O [IP02-V2] (H-CVLRMRSAC-OH; disulfide 1-9; N-terminus and C-terminus assumed) | – | – | IC50 [2]: > 1000 µM
CSCC[C@@H]1NC(=O)[C@H](CCCNC(=N)N)NC(=O)[C@H](C(C)C)NC(=O)[C@H](CC(C)C)NC(=O)[C@@H](N)CSSC[C@@H](C(=O)O)NC(=O)[C@H](C)NC(=O)[C@H](CO)NC(=O)[C@H](CCCNC(=N)N)NC1=O [IP02-V3] (H-CLVRMRSAC-OH; disulfide 1-9; N-terminus and C-terminus assumed) | – | – | IC50 [2]: > 1000 µM
CSCC[C@@H]1NC(=O)[C@H](CCCNC(=N)N)NC(=O)[C@H](CC(C)C)NC(=O)[C@H](CC(C)C)NC(=O)[C@@H](N)CSSC[C@@H](C(=O)O)NC(=O)[C@H](C(C)C)NC(=O)[C@H](CO)NC(=O)[C@H](CCCNC(=N)N)NC1=O [IP02-V8] (H-CLLRMRSVC-OH; disulfide 1-9; N-terminus and C-terminus assumed) | – | – | IC50 [2]: 700 µM; IC50 ([2]; unit μm [sic]): ~700 µM
CLLRMRSAC (disulfide 1-9) [IP02] | 480 µM | 210 µM | fold improvement of activity over IP01 (JY cell aggregation) [3]: 2 fold; fold improvement of inhibition over IP01 (JY cell aggregation IC50) [3]: 2.5 fold
CLLRMRAIC (disulfide 1-9) [IP01-A7] | – | 740 µM | –
CLLRMRSIC (disulfide 1-9) [IP01 (inhibitory peptide-01)] | 580 µM | 530 µM | –
CALRMRSIC (disulfide 1-9) [IP01-A2] | – | > 1000 µM | –
CLARMRSIC (disulfide 1-9) [IP01-A3] | – | > 1000 µM | –
CLLRARSIC (disulfide 1-9) [IP01-A5] | – | > 1000 µM | –
CLLRMASIC (disulfide 1-9) [IP01-A6] | – | > 1000 µM | –

Continued, in another order:

IC50, inhibition of JY cell aggregation, 360 minute incubation [3] | IC50, inhibition of JY cell aggregation at 2 hours [4] | Molecule | other results
90 µM | – | CLLRMKSAC (disulfide 1-9) [IP02-K6] | fold smaller IC50 than IP01 (JY cell aggregation, 360 minutes) [3]: ~6 fold
> 1000 µM | – | CLLRMRSLC (disulfide 1-9) [IP02-L8] | –
> 1000 µM | – | CLVRMRSAC (disulfide 1-9) [IP02-V3] | –
~700 µM | – | CLLRMRSVC (disulfide 1-9) [IP02-V8] | –
~700 µM | – | CLIRMRSAC (disulfide 1-9) [IP02-I3] | –
> 1000 µM | – | CVLRMRSAC (disulfide 1-9) [IP02-V2] | –
